Experimental data published in patent EP1073891B1, “METHOD OF PREDICTING RECEPTOR MODULATING ACTIVITY” (Duke University, priority 1998, dated 1999).
Positions count from the first letter of the chain named.

What was measured:
Format in all cases: cell-based
[1] = molecular target: T1, progesterone receptor (PRB-VP16) (Homo sapiens, UniProt P06401); assay: Mammalian two-hybrid, specificity of peptide-nuclear receptor interaction (Example 4.2); conditions: mammalian two-hybrid (Fig. 8)
T1 construct: expressed in transfected cells
T1 sequence (P06401 1-933): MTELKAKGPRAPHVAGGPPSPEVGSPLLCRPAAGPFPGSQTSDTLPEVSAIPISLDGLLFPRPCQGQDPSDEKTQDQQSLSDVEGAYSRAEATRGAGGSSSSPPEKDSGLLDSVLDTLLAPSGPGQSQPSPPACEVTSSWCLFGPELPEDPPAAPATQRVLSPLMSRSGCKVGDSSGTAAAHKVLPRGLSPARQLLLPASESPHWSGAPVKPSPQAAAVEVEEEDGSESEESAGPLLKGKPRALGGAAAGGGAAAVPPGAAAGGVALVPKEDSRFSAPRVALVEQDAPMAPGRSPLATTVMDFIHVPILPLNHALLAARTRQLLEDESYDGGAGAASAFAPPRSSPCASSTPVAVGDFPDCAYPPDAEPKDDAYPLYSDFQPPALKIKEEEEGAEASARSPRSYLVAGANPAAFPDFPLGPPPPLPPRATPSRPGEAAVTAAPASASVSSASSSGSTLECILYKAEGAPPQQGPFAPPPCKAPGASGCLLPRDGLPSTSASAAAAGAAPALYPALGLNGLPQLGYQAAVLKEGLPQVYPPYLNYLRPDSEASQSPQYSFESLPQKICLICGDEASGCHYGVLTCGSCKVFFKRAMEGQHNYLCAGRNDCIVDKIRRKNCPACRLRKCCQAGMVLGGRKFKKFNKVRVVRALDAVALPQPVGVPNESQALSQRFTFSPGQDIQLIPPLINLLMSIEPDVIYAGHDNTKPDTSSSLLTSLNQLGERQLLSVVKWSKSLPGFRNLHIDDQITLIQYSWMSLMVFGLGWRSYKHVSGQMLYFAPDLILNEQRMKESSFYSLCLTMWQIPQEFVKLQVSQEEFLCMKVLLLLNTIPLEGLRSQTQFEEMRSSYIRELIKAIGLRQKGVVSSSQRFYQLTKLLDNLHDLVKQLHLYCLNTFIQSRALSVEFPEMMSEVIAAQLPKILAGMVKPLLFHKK
From the text: (§1) Peptide sequences representing each class was fused to the DNA binding domain (DBD) of the yeast transcription factor Ga14. HepG2 cells were then transiently transfected with expression vectors for ERα-VP16 and the Gal4-peptide fusion proteins. In addition, a luciferase reporter construct under the control of 5 copies of a Ga14 upstream enhancer element was also transfected along with a pCMV-β galactosidase vector to normalize for transfection efficiency. Transfection of the Ga14 DBD alone is included as control. Cells were then induced with various ligands as indicated in the figure and assayed for luciferase activity and β galactosidase activity. Normalized response was obtained by dividing the luciferase activity by the β galactosidase activity.
The specificity of peptide-nuclear receptor interaction was analyzed (Fig. 8) using the mammalian two-hybrid system. Experimental design is the same as in figure 2 except that either progesterone receptor (PRB-VP16), estrogen receptor beta (ERβ-VP16), glucocorticoid receptor (GR-VP16) or thyroid receptor beta (TRβ-VP16) was tested.

[2] = molecular target: T2, ER3X (D538N/E542Q/D545N) (Homo sapiens, UniProt P03372, D538N/D545N/E542Q); assay: Mammalian two-hybrid with ERα AF-2 mutants (Examples 4.3, 101.3); conditions: mammalian two-hybrid (Fig. 9)
T2 construct: expressed in transfected cells
T2 sequence (P03372 1-595 D538N/E542Q/D545N): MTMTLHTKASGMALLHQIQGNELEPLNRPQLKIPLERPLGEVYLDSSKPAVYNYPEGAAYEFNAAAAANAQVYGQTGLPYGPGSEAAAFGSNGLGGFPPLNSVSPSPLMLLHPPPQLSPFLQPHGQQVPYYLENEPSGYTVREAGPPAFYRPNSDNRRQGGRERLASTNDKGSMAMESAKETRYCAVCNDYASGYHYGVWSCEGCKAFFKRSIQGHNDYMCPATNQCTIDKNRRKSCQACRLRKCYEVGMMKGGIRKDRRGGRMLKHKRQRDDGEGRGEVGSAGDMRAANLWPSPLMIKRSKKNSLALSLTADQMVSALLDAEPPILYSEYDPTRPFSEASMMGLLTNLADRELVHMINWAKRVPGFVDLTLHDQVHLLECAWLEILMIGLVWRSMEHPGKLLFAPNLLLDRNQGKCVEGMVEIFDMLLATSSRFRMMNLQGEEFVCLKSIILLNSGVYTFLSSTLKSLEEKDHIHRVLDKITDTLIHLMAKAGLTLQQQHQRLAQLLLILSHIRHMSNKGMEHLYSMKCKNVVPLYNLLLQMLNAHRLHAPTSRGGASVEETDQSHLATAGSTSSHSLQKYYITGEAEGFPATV
From the text: as §1
(§2) Three ERα mutants were compared with wild-type ERα. ER-LL was characterized by mutations L540A/L541A. Mutant ER3X was characterized by mutations D538N/E542Q/D545N. Finally, mutant ER-535 STOP was truncated after residue V535. […] Experimental design is the same as in figure 7 except that either (A) ER3X (B) ERLL or (C) ER535-stop was analyzed for binding to conformation sensitive peptides.
(§3) To test whether different LXXLL motif peptides interact within the same region of ER, mammalian two hybrid assays were used. Selected peptide sequences and different ER mutants (ER-LL, ER-3X, ER-535 STOP) were expressed as fusion proteins to Gal4DBD and VP16 (TAD), respectively.

[3] = molecular target: T3, ERLL (L540A/L541A) (Homo sapiens, UniProt P03372, L540A/L541A); assay: as above; conditions: mammalian two-hybrid (Fig. 9)
T3 construct: expressed in transfected cells
T3 sequence (P03372 1-595 L540A/L541A): T2 sequence (P03372 1-595 D538N/E542Q/D545N) with N538D, L540A, L541A, Q542E, N545D
From the text: as §1, §2, §3

Sequence	interaction with PRB [1]	interaction with the ER3X mutant receptor [2]	interaction with the ERLL mutant receptor [3]
SSLTSRDFGSWYASR [α II]	None of the receptors tested interact significantly	largely unaffected	largely unaffected
SSNHQSSRLIELLSR [α/β I]	interact with the αβ I peptide in the presence of the appropriate agonist	retains some ability to engage	unable to interact
SSPGSREWFKDMLSR [α/β V]	able to associate with PRB in the presence of the PR antagonists RU 486 and ZK 98299	loss of the tamoxifen specificity	loss of the tamoxifen specificity
SSWDMHQFFWEGVSR [α/β III]	None of the receptors tested interact significantly	loss of the tamoxifen specificity	loss of the tamoxifen specificity
